Measured values from patent publication US20250296971A1, “GASTRIC INHIBITORY PEPTIDE RECEPTOR LIGANDS” (priority 2021, published 2025).
*1 amine or outer side, *2 acyl side, *3 side chain or, on linkers, in order; H or OH if unused. Bridges are numbered along the chain shown (N, C = ends). Primed or numbered codes have the meaning given here. [ ]: non-standard residue; d: D form. The star is where a group is joined. 3‑methylbenzoyl = 3-methylbenzoyl group bridging Dap and AET, O=C(c1cccc(C[*:3])c1)[*:2]; Ttds = 1,13-diamino-4,7,10-trioxatridecan-succinamic acid, NCCCOCCOCCOCCCNC(=O)CCC(=O)*; Pro(trans-4-NH2) = O=C([C@@H]1C[C@@H](N[*:3])CN1[*:1])[*:2]; DOTA = O=C(O)CN1CCN(CC(=O)O)CCN(CC(=O)*)CCN(CC(=O)O)CC1; 2Lut = 2,6-lutidylidene bridge between two thiols; Trp(5-Cl) = N[C@@H](Cc1c[nH]c2ccc(Cl)cc12)C(=O)O; Phe(3,4-Cl2) = N[C@@H](Cc1ccc(Cl)c(Cl)c1)C(=O)O; Pyridine(2,6-diCH2) = c1cc(C[*:1])nc(C[*:2])c1; Trp(7-F) = N[C@@H](Cc1c[nH]c2c(F)cccc12)C(=O)O; Phe(2,4-Cl2) = N[C@@H](Cc1ccc(Cl)cc1Cl)C(=O)O; 2Lut″ = 2,6-lutidylidene linking two thiols; Phe(4-Cl) = N[C@@H](Cc1ccc(Cl)cc1)C(=O)O; Thz(5,5-Me2) = CC1(C)SCN[C@@H]1C(=O)O; Ser(ΨH,HPro) = O=C(O)[C@@H]1COCN1; Hyp = O=C(O)[C@@H]1C[C@@H](O)CN1; NMeE = CN[C@@H](CCC(=O)O)C(=O)O; Cysteamide = C(CS[*:3])N[*:1]; Tle = CC(C)(C)[C@H](N)C(=O)O; Thz = O=C(O)[C@@H]1CSCN1; Thp = NC1(C(=O)O)CCOCC1; Dap = NC[C@H](N)C(=O)O; Aib = CC(C)(N)C(=O)O

Molecular target: human Gastric Inhibitory Peptide Receptor (GIPR) (human) (UniProt P48546)
Experiment: FACS competition vs biotinylated GIP-057 on CHO-K1-hGIPR cells; category A: pIC50 >8.0

Binder | pIC50 [pic50]
Ac-DW[Phe(3,4-Cl2)][Hyp]E[dL]C[Thp]LIC-NH2 (linker 7-11 via 2Lut″) [Ac-Asp-Trp-Eaa-Hyp-Glu-leu-[Cys(2Lut)-Thp-Leu-Ile-Cys]-NH2] | > 8
{HO‑Glutar}-W[Trp(5-Cl)][Hyp]E[dL]C[Thp]LIC-NH2 (linker 6-10 via 2Lut) [HO-Glutar-Trp-5Clw-Hyp-Glu-leu-[Cys(2Lut)-Thp-Leu-Ile-Cys]-NH2] | > 8
Ac-DW[Trp(5-Cl)][Thz]E[dL]C[Thp]LIC-NH2 (linker 7-11 via Pyridine(2,6-diCH2)) [Ac-Asp-Trp-5Clw-Eaz-Glu-leu-[Cys(2Lut)-Thp-Leu-Ile-Cys]-NH2] | > 8
Ac-DF[Trp(5-Cl)][Hyp]E[dL]C[Thp]LIC-NH2 (linker 7-11 via Pyridine(2,6-diCH2)) [Ac-Asp-Phe-5Clw-Hyp-Glu-leu-[Cys(2Lut)-Thp-Leu-Ile-Cys]-NH2] | > 8
Ac-DW[Trp(5-Cl)][Hyp]E[dL]C[Thp]SIC-NH2 (linker 7-11 via Pyridine(2,6-diCH2); SMILES CC[C@H](C)[C@@H]1NC(=O)[C@H](CO)NC(=O)C2(CCOCC2)NC(=O)[C@@H](NC(=O)[C@@H](CC(C)C)NC(=O)[C@H](CCC(=O)O)NC(=O)[C@@H]2C[C@@H](O)CN2C(=O)[C@H](Cc2c[nH]c3ccc(Cl)cc23)NC(=O)[C@H](Cc2c[nH]c3ccccc23)NC(=O)[C@H](CC(=O)O)NC(C)=O)CSCc2cccc(n2)CSC[C@@H](C(N)=O)NC1=O) [Ac-Asp-Trp-5Clw-Hyp-Glu-leu-[Cys(2Lut)-Thp-Ser-Ile-Cys]-NH2] | > 8
Ac-DW[Trp(5-Cl)][Hyp]E[dL]C[Thp]L[Tle]C-NH2 (linker 7-11 via Pyridine(2,6-diCH2); SMILES CC(=O)N[C@@H](CC(=O)O)C(=O)N[C@@H](Cc1c[nH]c2ccccc12)C(=O)N[C@@H](Cc1c[nH]c2ccc(Cl)cc12)C(=O)N1C[C@H](O)C[C@H]1C(=O)N[C@@H](CCC(=O)O)C(=O)N[C@H](CC(C)C)C(=O)N[C@H]1CSCc2cccc(n2)CSC[C@@H](C(N)=O)NC(=O)[C@H](C(C)(C)C)NC(=O)[C@H](CC(C)C)NC(=O)C2(CCOCC2)NC1=O) [Ac-Asp-Trp-5Clw-Hyp-Glu-leu-[Cys(2Lut)-Thp-Leu-Tle-Cys]-NH2] | > 8
Ac-DW[Trp(7-F)][Hyp]E[dL]C[Thp]LIC-NH2 (linker 7-11 via 2Lut″) [Ac-Asp-Trp-7Fw-Hyp-Glu-leu-[Cys(2Lut)-Thp-Leu-Ile-Cys]-NH2] | > 8
Ac-DX[Trp(5-Cl)][Hyp]E[dL]C[Thp]LIC-NH2 (linker 7-11 via Pyridine(2,6-diCH2); not fully specified (residue 2); printed as Ac-Asp-Hyw-5Clw-Hyp-Glu-leu-[Cys(2Lut)-Thp-Leu-Ile-Cys]-NH2) [Ac-Asp-Hyw-5Clw-Hyp-Glu-leu-[Cys(2Lut)-Thp-Leu-Ile-Cys]-NH2] | > 8
{DOTA-Ttds}-DW[Trp(5-Cl)]PE[dL][Dap][Aib]LI[Cysteamide] (linker (positions not given here) via 3‑methylbenzoyl; not fully specified (bridges); printed as DOTA-Ttds-Asp-Trp-5Clw-Pro-Glu-leu-[Dap(3MeBz)-Aib-Leu-Ile-AET]) [DOTA-Ttds-Asp-Trp-5Clw-Pro-Glu-leu-[Dap(3MeBz)-Aib-Leu-Ile-AET]] | > 8
Ac-DW[Trp(5-Cl)][Hyp]E[dL]C[Thp]WIC-NH2 (linker 7-11 via Pyridine(2,6-diCH2); SMILES CC[C@H](C)[C@@H]1NC(=O)[C@H](Cc2c[nH]c3ccccc23)NC(=O)C2(CCOCC2)NC(=O)[C@@H](NC(=O)[C@@H](CC(C)C)NC(=O)[C@H](CCC(=O)O)NC(=O)[C@@H]2C[C@@H](O)CN2C(=O)[C@H](Cc2c[nH]c3ccc(Cl)cc23)NC(=O)[C@H](Cc2c[nH]c3ccccc23)NC(=O)[C@H](CC(=O)O)NC(C)=O)CSCc2cccc(n2)CSC[C@@H](C(N)=O)NC1=O) [Ac-Asp-Trp-5Clw-Hyp-Glu-leu-[Cys(2Lut)-Thp-Trp-Ile-Cys]-NH2] | > 8
Ac-D[Phe(2,3-Cl2)][Trp(5-Cl)][Hyp]E[dL]C[Thp]LIC-NH2 (linker 7-11 via Pyridine(2,6-diCH2)) [Ac-Asp-Egp-5Clw-Hyp-Glu-leu-[Cys(2Lut)-Thp-Leu-Ile-Cys]-NH2] | > 8
Ac-D[Phe(3,4-Cl2)][Trp(5-Cl)][Hyp]E[dL]C[Thp]LIC-NH2 (linker 7-11 via Pyridine(2,6-diCH2); SMILES CC[C@H](C)[C@@H]1NC(=O)[C@H](CC(C)C)NC(=O)C2(CCOCC2)NC(=O)[C@@H](NC(=O)[C@@H](CC(C)C)NC(=O)[C@H](CCC(=O)O)NC(=O)[C@@H]2C[C@@H](O)CN2C(=O)[C@H](Cc2c[nH]c3ccc(Cl)cc23)NC(=O)[C@H](Cc2ccc(Cl)c(Cl)c2)NC(=O)[C@H](CC(=O)O)NC(C)=O)CSCc2cccc(n2)CSC[C@@H](C(N)=O)NC1=O) [Ac-Asp-Eaa-5Clw-Hyp-Glu-leu-[Cys(2Lut)-Thp-Leu-Ile-Cys]-NH2] | > 8
Ac-DW[Trp(5-Cl)][Thz(5,5-Me2)]E[dL]C[Thp]LIC-NH2 (linker 7-11 via Pyridine(2,6-diCH2)) [Ac-Asp-Trp-5Clw-Dtc-Glu-leu-[Cys(2Lut)-Thp-Leu-Ile-Cys]-NH2] | > 8
Ac-DW[Trp(5-Cl)][Hyp]E[dL]C[Thp]IIC-NH2 (linker 7-11 via Pyridine(2,6-diCH2); SMILES CC[C@H](C)[C@@H]1NC(=O)[C@H]([C@@H](C)CC)NC(=O)C2(CCOCC2)NC(=O)[C@@H](NC(=O)[C@@H](CC(C)C)NC(=O)[C@H](CCC(=O)O)NC(=O)[C@@H]2C[C@@H](O)CN2C(=O)[C@H](Cc2c[nH]c3ccc(Cl)cc23)NC(=O)[C@H](Cc2c[nH]c3ccccc23)NC(=O)[C@H](CC(=O)O)NC(C)=O)CSCc2cccc(n2)CSC[C@@H](C(N)=O)NC1=O) [Ac-Asp-Trp-5Clw-Hyp-Glu-leu-[Cys(2Lut)-Thp-Ile-Ile-Cys]-NH2] | > 8
Ac-DW[Trp(5-Cl)][Hyp]E[dL]C[Thp]LLC-NH2 (linker 7-11 via Pyridine(2,6-diCH2); SMILES CC(=O)N[C@@H](CC(=O)O)C(=O)N[C@@H](Cc1c[nH]c2ccccc12)C(=O)N[C@@H](Cc1c[nH]c2ccc(Cl)cc12)C(=O)N1C[C@H](O)C[C@H]1C(=O)N[C@@H](CCC(=O)O)C(=O)N[C@H](CC(C)C)C(=O)N[C@H]1CSCc2cccc(n2)CSC[C@@H](C(N)=O)NC(=O)[C@H](CC(C)C)NC(=O)[C@H](CC(C)C)NC(=O)C2(CCOCC2)NC1=O) [Ac-Asp-Trp-5Clw-Hyp-Glu-leu-[Cys(2Lut)-Thp-Leu-Leu-Cys]-NH2] | > 8
Ac-DW[Trp(5-Cl)][Hyp][NMeE]LC[Thp]LIC-NH2 (linker 7-11 via Pyridine(2,6-diCH2)) [Ac-Asp-Trp-5Clw-Hyp-Nme-Leu-[Cys(2Lut)-Thp-Leu-Ile-Cys]-NH2] | > 8
Ac-DW[Trp(5-Cl)][Ser(ΨH,HPro)]E[dL]C[Thp]LIC-NH2 (linker 7-11 via Pyridine(2,6-diCH2)) [Ac-Asp-Trp-5Clw-Oxa-Glu-leu-[Cys(2Lut)-Thp-Leu-Ile-Cys]-NH2] | > 8
Ac-DW[Trp(5-Cl)][Hyp][dE]LC[Thp]LIC-NH2 (linker 7-11 via Pyridine(2,6-diCH2)) [Ac-Asp-Trp-5Clw-Hyp-glu-Leu-[Cys(2Lut)-Thp-Leu-Ile-Cys]-NH2] | > 8
Ac-DW[Trp(5-Cl)][Hyp]E[dL]C[Thp]FIC-NH2 (linker 7-11 via Pyridine(2,6-diCH2); SMILES CC[C@H](C)[C@@H]1NC(=O)[C@H](Cc2ccccc2)NC(=O)C2(CCOCC2)NC(=O)[C@@H](NC(=O)[C@@H](CC(C)C)NC(=O)[C@H](CCC(=O)O)NC(=O)[C@@H]2C[C@@H](O)CN2C(=O)[C@H](Cc2c[nH]c3ccc(Cl)cc23)NC(=O)[C@H](Cc2c[nH]c3ccccc23)NC(=O)[C@H](CC(=O)O)NC(C)=O)CSCc2cccc(n2)CSC[C@@H](C(N)=O)NC1=O) [Ac-Asp-Trp-5Clw-Hyp-Glu-leu-[Cys(2Lut)-Thp-Phe-Ile-Cys]-NH2] | > 8
Ac-DW[Trp(5-Cl)][Hyp]E[dL]C[Thp]EIC-NH2 (linker 7-11 via Pyridine(2,6-diCH2); SMILES CC[C@H](C)[C@@H]1NC(=O)[C@H](CCC(=O)O)NC(=O)C2(CCOCC2)NC(=O)[C@@H](NC(=O)[C@@H](CC(C)C)NC(=O)[C@H](CCC(=O)O)NC(=O)[C@@H]2C[C@@H](O)CN2C(=O)[C@H](Cc2c[nH]c3ccc(Cl)cc23)NC(=O)[C@H](Cc2c[nH]c3ccccc23)NC(=O)[C@H](CC(=O)O)NC(C)=O)CSCc2cccc(n2)CSC[C@@H](C(N)=O)NC1=O) [Ac-Asp-Trp-5Clw-Hyp-Glu-leu-[Cys(2Lut)-Thp-Glu-Ile-Cys]-NH2] | > 8
Ac-D[Trp(7-F)][Trp(5-Cl)][Hyp]E[dL]C[Thp]LIC-NH2 (linker 7-11 via Pyridine(2,6-diCH2)) [Ac-Asp-7Fw-5Clw-Hyp-Glu-leu-[Cys(2Lut)-Thp-Leu-Ile-Cys]-NH2] | > 8
Ac-DW[Trp(5-Cl)][Hyp]E[dL]C[Thp]RIC-NH2 (linker 7-11 via Pyridine(2,6-diCH2); SMILES CC[C@H](C)[C@@H]1NC(=O)[C@H](CCCNC(=N)N)NC(=O)C2(CCOCC2)NC(=O)[C@@H](NC(=O)[C@@H](CC(C)C)NC(=O)[C@H](CCC(=O)O)NC(=O)[C@@H]2C[C@@H](O)CN2C(=O)[C@H](Cc2c[nH]c3ccc(Cl)cc23)NC(=O)[C@H](Cc2c[nH]c3ccccc23)NC(=O)[C@H](CC(=O)O)NC(C)=O)CSCc2cccc(n2)CSC[C@@H](C(N)=O)NC1=O) [Ac-Asp-Trp-5Clw-Hyp-Glu-leu-[Cys(2Lut)-Thp-Arg-Ile-Cys]-NH2] | > 8
Ac-D[Phe(2,4-Cl2)][Trp(5-Cl)][Hyp]E[dL]C[Thp]LIC-NH2 (linker 7-11 via Pyridine(2,6-diCH2); SMILES CC[C@H](C)[C@@H]1NC(=O)[C@H](CC(C)C)NC(=O)C2(CCOCC2)NC(=O)[C@@H](NC(=O)[C@@H](CC(C)C)NC(=O)[C@H](CCC(=O)O)NC(=O)[C@@H]2C[C@@H](O)CN2C(=O)[C@H](Cc2c[nH]c3ccc(Cl)cc23)NC(=O)[C@H](Cc2ccc(Cl)cc2Cl)NC(=O)[C@H](CC(=O)O)NC(C)=O)CSCc2cccc(n2)CSC[C@@H](C(N)=O)NC1=O) [Ac-Asp-Egm-5Clw-Hyp-Glu-leu-[Cys(2Lut)-Thp-Leu-Ile-Cys]-NH2] | > 8
Ac-DW[Trp(5-Cl)][Pro(trans-4-NH2)]E[dL]C[Thp]LIC-NH2 (linker 7-11 via 2Lut″) [Ac-Asp-Trp-5Clw-Tap-Glu-leu-[Cys(2Lut)-Thp-Leu-Ile-Cys]-NH2] | > 8
Ac-D[Phe(4-Cl)][Trp(5-Cl)][Hyp]E[dL]C[Thp]LIC-NH2 (linker 7-11 via Pyridine(2,6-diCH2)) [Ac-Asp-Pcf-5Clw-Hyp-Glu-leu-[Cys(2Lut)-Thp-Leu-Ile-Cys]-NH2] | > 8
